# Measurements as given in paper PMC10699790 (Science Advances, 2023).
# B1: SNAP-mGluR3 without an HA tag (receptor)
# chain: LGDHNFMRREIKIEGDLVLGGLFPINEKGTGTEECGRINEDRGIQRLEAMLFAIDEINKDNYLLPGVKLGVHILDTCSRDTYALEQSLEFVRASLTKVDEAEYMCPDGSYAIQENIPLLIAGVIGGSYSSVSIQVANLLRLFQIPQISYASTSAKLSDKSRYDYFARTVPPDFYQAKAMAEILRFFNWTYVSTVASEGDYGETGIEAFEQEARLRNICIATAEKVGRSNIRKSYDSVIRELLQKPNARVVVLFMRSDDSRELIAAANRVNASFTWVASDGWGAQESIVKGSEHVAYGAITLELASHPVRQFDRYFQSLNPYNNHRNPWFRDFWEQKFQCSLQNKRNHRQVCDKHLAIDSSNYEQESKIMFVVNAVYAMAHALHKMQRTLCPNTTKLCDAMKILDGKKLYKEYLLKINFTAPFNPNKGADSIVKFDTFGDGMGRYNVFNLQQTGGKYSYLKVGHWAETLSLDVDSIHWSRNSVPTSQCSDPCAPNEMKNMQPGDVCCWICIPCEPYEYLVDEFTCMDCGPGQWPTADLSGCYNLPEDYIKWEDAWAIGPVTIACLGFLCTCIVITVFIKHNNTPLVKASGRELCYILLFGVSLSYCMTFFFIAKPSPVICALRRLGLGTSFAICYSALLTKTNCIARIFDGVKNGAQRPKFISPSSQVFICLGLILVQIVMVSVWLILETPGTRRYTLPEKRETVILKCNVKDSSMLISLTYDVVLVILCTVYAFKTRKCPENFNEAKFIGFTMYTTCIIWLAFLPIFYVTSSDYRVQTTTMCISVSLSGFVVLGCLFAPKVHIVLFQPQKNVVTHRLHLNRFSVSGTATTYSQSSASTYVPTVCNGREVLDSTTSSL
# modifications: SNAP tag labeled with SBG-JF646
# Assays:
# HA-Halo-mGluR2 = HA-Halo-mGluR2 (rat, UniProt P31421 19-872, Halo tag labeled with CA-SS-Alexa-488); test: single-molecule pulldown
# HA-Halo-mGluR8 = HA-Halo-mGluR8 (human, UniProt O00222 34-908, Halo tag labeled with CA-SS-Alexa-488); test: single-molecule pulldown
# HA-Halo-mGluR8, sequence (O00222 34-908): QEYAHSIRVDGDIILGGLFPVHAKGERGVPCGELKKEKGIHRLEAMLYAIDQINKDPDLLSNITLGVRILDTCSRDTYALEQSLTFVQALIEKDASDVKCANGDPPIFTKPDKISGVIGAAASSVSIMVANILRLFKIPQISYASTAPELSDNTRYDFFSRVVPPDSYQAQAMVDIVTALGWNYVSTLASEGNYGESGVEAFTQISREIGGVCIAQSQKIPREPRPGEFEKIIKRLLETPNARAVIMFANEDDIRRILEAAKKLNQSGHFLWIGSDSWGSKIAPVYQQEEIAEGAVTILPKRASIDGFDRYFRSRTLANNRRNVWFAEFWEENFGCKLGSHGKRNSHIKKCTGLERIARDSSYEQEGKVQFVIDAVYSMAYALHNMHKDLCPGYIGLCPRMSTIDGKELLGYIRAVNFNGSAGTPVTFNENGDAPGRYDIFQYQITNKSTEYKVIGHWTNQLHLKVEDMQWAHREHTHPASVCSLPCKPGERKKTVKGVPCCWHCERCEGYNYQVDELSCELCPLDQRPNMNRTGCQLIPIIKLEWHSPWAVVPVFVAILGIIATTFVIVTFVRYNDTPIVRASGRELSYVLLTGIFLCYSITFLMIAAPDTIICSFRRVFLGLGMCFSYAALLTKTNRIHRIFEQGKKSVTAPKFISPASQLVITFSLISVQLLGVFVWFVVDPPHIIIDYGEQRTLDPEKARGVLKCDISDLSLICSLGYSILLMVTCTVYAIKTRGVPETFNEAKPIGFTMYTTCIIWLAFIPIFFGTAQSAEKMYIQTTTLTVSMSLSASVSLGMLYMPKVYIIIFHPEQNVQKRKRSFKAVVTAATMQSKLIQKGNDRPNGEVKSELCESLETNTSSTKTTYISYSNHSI
# HA-Halo-mGluR2, sequence (P31421 19-872): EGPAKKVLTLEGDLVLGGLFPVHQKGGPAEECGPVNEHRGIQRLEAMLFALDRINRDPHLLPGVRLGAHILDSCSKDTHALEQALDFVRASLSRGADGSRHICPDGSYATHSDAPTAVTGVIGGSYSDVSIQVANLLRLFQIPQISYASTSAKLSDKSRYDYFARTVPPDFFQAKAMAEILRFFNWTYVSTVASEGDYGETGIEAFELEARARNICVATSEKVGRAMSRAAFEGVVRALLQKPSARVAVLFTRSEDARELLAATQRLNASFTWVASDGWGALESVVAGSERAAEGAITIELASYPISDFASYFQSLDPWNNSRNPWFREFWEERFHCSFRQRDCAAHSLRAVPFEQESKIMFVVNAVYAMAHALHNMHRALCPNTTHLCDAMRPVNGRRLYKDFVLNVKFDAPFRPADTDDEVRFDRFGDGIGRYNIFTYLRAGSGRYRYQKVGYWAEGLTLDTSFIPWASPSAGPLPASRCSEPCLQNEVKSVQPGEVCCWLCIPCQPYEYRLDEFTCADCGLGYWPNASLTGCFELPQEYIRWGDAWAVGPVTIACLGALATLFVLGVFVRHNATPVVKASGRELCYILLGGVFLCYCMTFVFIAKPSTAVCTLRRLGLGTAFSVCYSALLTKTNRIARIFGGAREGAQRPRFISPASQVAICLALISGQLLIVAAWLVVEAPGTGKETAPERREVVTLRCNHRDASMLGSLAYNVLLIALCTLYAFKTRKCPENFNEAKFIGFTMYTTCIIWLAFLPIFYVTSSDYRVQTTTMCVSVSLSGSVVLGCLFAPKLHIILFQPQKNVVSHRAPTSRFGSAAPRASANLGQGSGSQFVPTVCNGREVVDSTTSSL
binder,measurement,setting,value
B1,stoichiometry N,HA-Halo-mGluR2,1
same,stoichiometry N,HA-Halo-mGluR8,1
